Measurements from article PMC4543619 (British Journal of Pharmacology, 2015).
Like-named read-outs stand apart in the source and are kept apart here.

Tests used:
[1] = target: T1, native/full length GTP cyclohydrolase 1 (F‐GCH1), His6-tagged (human, UniProt P30793 1-250); test: SPR
T1 sequence (looked up): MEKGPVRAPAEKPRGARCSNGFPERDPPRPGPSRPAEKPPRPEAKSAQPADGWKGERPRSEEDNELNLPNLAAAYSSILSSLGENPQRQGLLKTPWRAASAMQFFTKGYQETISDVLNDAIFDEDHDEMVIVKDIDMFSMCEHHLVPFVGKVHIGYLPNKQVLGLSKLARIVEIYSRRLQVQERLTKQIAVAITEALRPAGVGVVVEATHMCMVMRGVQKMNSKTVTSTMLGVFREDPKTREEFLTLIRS

[2] = target: T1, native/full length GTP cyclohydrolase 1 …; test: SPR; remark: listed apart in the source

B1: GCH1 feedback regulatory protein (GFRP), His6 tag cleaved (natural protein)
chain: not shown
Work on B1 yielded a Kd [1] of 1 nM and a Kd [2] of 8 nM.
